Data reported in publication doi:10.1101/2024.12.19.629262 (bioRxiv, 2024).

Legend:
[1] = molecular target: wild-type (untethered) III2IV2 respiratory supercomplex with Cox4-Flag (S. cerevisiae) (UniProt P07256); test: co-IP
[2] = molecular target: T1, Cor1, subunit of complex III (S. cerevisiae, UniProt P07256 27-457); test: cryo-EM structure
T1 sequence: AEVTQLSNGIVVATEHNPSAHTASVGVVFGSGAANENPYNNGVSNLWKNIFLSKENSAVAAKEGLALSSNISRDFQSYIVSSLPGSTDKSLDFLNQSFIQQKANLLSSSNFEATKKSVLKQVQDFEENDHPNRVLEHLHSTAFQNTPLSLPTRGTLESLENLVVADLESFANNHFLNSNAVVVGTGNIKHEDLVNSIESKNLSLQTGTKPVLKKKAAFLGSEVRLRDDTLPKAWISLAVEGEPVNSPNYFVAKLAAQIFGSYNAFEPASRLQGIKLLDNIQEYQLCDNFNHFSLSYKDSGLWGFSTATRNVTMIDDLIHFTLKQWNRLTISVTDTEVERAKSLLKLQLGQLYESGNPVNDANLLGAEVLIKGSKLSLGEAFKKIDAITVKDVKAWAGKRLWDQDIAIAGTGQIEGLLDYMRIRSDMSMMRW

B1: Nde1, external mitochondrial NADH dehydrogenase (enzyme)
chain: EDKKVILQKVAPTTGVVAKQSFFKRTGKFTLKALLYSALAGTAYVSYSLYREANPSTQVPQSDTFPNGSKRKTLVILGSGWGSVSLLKNLDTTLYNVVVVSPRNYFLFTPLLPSTPVGTIELKSIVEPVRTIARRSHGEVHYYEAEAYDVDPENKTIKVKSSAKNNDYDLDLKYDYLVVGVGAQPNTFGTPGVYEYSSFLKEISDAQEIRLKIMSSIEKAASLSPKDPERARLLSFVVVGGGPTGVEFAAELRDYVDQDLRKWMPELSKEIKVTLVEALPNILNMFDKYLVDYAQDLFKEEKIDLRLKTMVKKVDATTITAKTGDGDIENIPYGVLVWATGNAPREVSKNLMTKLEEQDSRRGLLIDNKLQLLGAKGSIFAIGDCTFHPGLFPTAQVAHQEGEYLAQYFKKAYKIDQLNWKMTHAKDDSEVARLKNQIVKTQSQIEDFKYNHKGALAYIGSDKAIADLAVGEAKYRLAGSFTFLFWKSAYLAMCLSFRNRVLVAMDWAKVYFLGRDSSI
- fold decrease of co-purified Nde1 (normalised to purified SC) against III2IV1 SC [1]: 2 fold

B2: Cox5a, subunit of complex IV (natural protein)
chain: AQTHALSNAAVMDLQSRWENMPSTEQQDIVSKLSERQKLPWAQLTEPEKQAVWYISYGEWGPRRPVLNKGDSSFIAKGVAAGLLFSVGLFAVVRMAGGQDAKTMNKEWQLKSDEYLKSKNANPWGGYSQVQSK
- binding result [2]: binds
